The supplement of paper PMC11780869

Tested on: Bacillus subtilis
Experiment: cleaved RNA product abundance (RNA/gDNA barcode ratio) relative to median wild-type variant (ratio to wild type); higher = more accumulation of the downstream cleavage product
In short: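 Cleaved product abundance is expressed as the RNA:gDNA barcode ratio per construct, scaled to the median construct carrying the unmutated site. The constructs were barcoded, mutagenized RNase Y cleavage-site windows in truncated aprE or tetM reporter mRNAs integrated into the B. subtilis chromosome. Cultures grew in LB at 37°C from OD600 0.0003 to 0.3 before cleaved RNA was gel-selected and barcode-sequenced.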

[1] = experiment (reporter, strain, medium): exp 2b: truncated aprE reporter, strain BJT200, cleavage site: cggR-gapA (positions -7 to +36 mutated)
[2] = experiment (reporter, strain, medium): exp 4a: truncated aprE reporter, strain BJT201 with 2% xylose (RNase J1 expressed), cleavage site: cggR-gapA (positions -7 to +36 mutated)
[3] = experiment (reporter, strain, medium): exp 6: tetM reporter, strain 168, cleavage site: cggR-gapA (positions -7 to +36 mutated)
[4] = experiment (reporter, strain, medium): exp 8a: truncated aprE reporter, strain BJT201 with 2% xylose (RNase J1 expressed), cleavage site: glnRA (positions -5 to +31 mutated)

ACAGACGAAGGAGCCGCAAAGAAGCTATTAAGGGATGAATAATCCCTCAATATAAATATCTCTCACTTATTTAAA
cleaved RNA product abundance [1]: 0.571 | cleaved RNA product abundance [2]: 0.615 | cleaved RNA product abundance [3]: 0.588

ACAGACGAAGGAGCCGCAAAGAAGTTATTAAGGGATGAATGATCCCTGAATATAAATATCTCTCACTTATTTAAA
cleaved RNA product abundance [2]: 0.383

ACAGACGAAGGAGCCGCAAAGAAGTTATTAAGGAATGTATAATCCCTCAATATAAATATCTCTCACTTATTTAAA
cleaved RNA product abundance [1]: 0.104 | cleaved RNA product abundance [2]: 0.169

CGACATGTCCCGCTTCTTTCATTATTCTGTTAGCAACTGTTTAGCTATATACATTTACCTTTTAAGAGGAGGAAT
cleaved RNA product abundance [4]: 0.759

ACAGACGAAGGAGCCGCAAAGAAGTTATTAACGGCTGAATAATCCCTCAATATAAATATCTCTCACTTATTTAAA
cleaved RNA product abundance [1]: 0.0646 | cleaved RNA product abundance [2]: 0.0788

ACAGACGAAGGAGCCGCAAAAAAGTTATTAAGGGATGAATAATCCCTTAATATAAATATCTCTCACTTATTTAAA
cleaved RNA product abundance [2]: 0.394

ACAGACGAAGGAGCCGCAAATAAGTTATTAAGGGACGAATAATCCCTCAATATAAATATCTCTCACTTATTTAAA
cleaved RNA product abundance [1]: 0.65 | cleaved RNA product abundance [2]: 0.802

CGACATGTCCCGCTTCTTTCATTAAACCGTTAGCAACTGTTATGCTATATACATTTACCTTTTAAGAGGAGGAAT
cleaved RNA product abundance [4]: 0.552

ACAGACGAAGGAGCCGCTAAGAAGTTATTAAGGGATGAATTATCCCTCAATATAAATATCTCTCACTTATTTAAA
cleaved RNA product abundance [2]: 0.874

ACAGACGAAGGAGCCGCAAAGAAGTTATTAACGGATGAATAATCCCTCAATCTAAATATCTCTCACTTATTTAAA
cleaved RNA product abundance [2]: 0.102

ACAGACGAAGGAGCCGCAAAGAAGTTATTAAGGGATGTATAATCCCACAATATAAATATCTCTCACTTATTTAAA
cleaved RNA product abundance [2]: 0.308

ACAGACGAAGGAGCCGCAAAGAAGTTATTAAGGGAAGAACAATCCCTCAATATAAATATCTCTCACTTATTTAAA
cleaved RNA product abundance [2]: 0.73

ACAGACGAAGGAGCCGCAAAGAAGATATTAAGGGATGAATAATCCCTCAATTTAAATATCTCTCACTTATTTAAA
cleaved RNA product abundance [1]: 0.157

CGACATGTCCCGCTTCTTTCATTACTCCGTTAGCAACTGTTTTGCGATATACATTTACCTTTTAAGAGGAGGAAT
cleaved RNA product abundance [4]: 0.388

ACAGACGAAGGAGCCGCAAAGAAGTTATTAAGGGATGAATGATCCCTCAATATAAAAATCTCTCACTTATTTAAA
cleaved RNA product abundance [2]: 0.651

CGACATGTCCCGCTTCTTTCATTAAACCGTTAGCAACTGTTTTGCTATATAGATTTACCTTTTAAGAGGAGGAAT
cleaved RNA product abundance [4]: 1.35

ACAGACGAAGGAGCCGCAAAGAAGTTATTAAGGGATAAATAAGCCCTCAATATAAATATCTCTCACTTATTTAAA
cleaved RNA product abundance [2]: 0.821

CGACATGTCCCGCTTCTTTCATTAATCTGTTAGCAACTGTTTTGCTATATCCATTTACCTTTTAAGAGGAGGAAT
cleaved RNA product abundance [4]: 0.263

ACAGACGAAGGAGCCGCAAAGAAGTAATTAAGGGATGAATAATCCCTCAATATAACTATCTCTCACTTATTTAAA
cleaved RNA product abundance [2]: 0.215

ACAGACGAAGGAGCCGCAAAGAAGTTATTAAGGGATGAGTAATCCCTTAATATAAATATCTCTCACTTATTTAAA
cleaved RNA product abundance [2]: 0.601

ACAGACGAAGGAGCCGCAAAGACGTTATTAAGGGATGAATAATCCGTCAATATAAATATCTCTCACTTATTTAAA
cleaved RNA product abundance [2]: 0.192

CGACATGTCCCGCTTCTTTCATTAATCCGTTAGCACCTGTTTTGCTATATACAATTACCTTTTAAGAGGAGGAAT
cleaved RNA product abundance [4]: 0.867

CGACATGTCCCGCTTCTTTCATTAATCCTTTAGCAACTGTTTTGTTATATACATTTACCTTTTAAGAGGAGGAAT
cleaved RNA product abundance [4]: 0.553

ACAGACGAAGGAGCCGCAATGAAATTATTAAGGGATTAATAATCCCTCAATATAAATATCTCTCACTTATTTAAA
cleaved RNA product abundance [2]: 0.695

ACAGACGAAGGAGCCGCAAAGAAGTTATTAAGGGATGAATAATCCTACAATATAAATATCTCTCACTTATTTAAA
cleaved RNA product abundance [2]: 0.295

ACAGACGAAGGAGCCGCAAAGAAGTTATTAAGGGATGAATAATCCCTCAATATGAATATCTCTCACTTATTTAAA
cleaved RNA product abundance [1]: 0.153 | cleaved RNA product abundance [2]: 0.102 | cleaved RNA product abundance [3]: 0.0685

ACAGACGAAGGAGCCGCAAAGAAGTTATTAAGGGTTGAATAATTCCTCAATATAAATATCTCTCACTTATTTAAA
cleaved RNA product abundance [2]: 0.1

CGACATGTCCCGCTTCTTTCATTAATCCGTTAGCATCTGTTTTGCTATATACATTTACCTTTTAAGAGGAGGAAT
cleaved RNA product abundance [4]: 0.769

CGACATGTCCCGCTTCTTTCATTAATCCGTTTGCAACTGTTTTGCTATATACATTGACCTTTTAAGAGGAGGAAT
cleaved RNA product abundance [4]: 0.837

ACAGACGAAGGAGCCGCAAATAAGTTATTAAGGGTTGAATAATCCCTCAATATAAATATCTCTCACTTATTTAAA
cleaved RNA product abundance [1]: 0.425 | cleaved RNA product abundance [2]: 0.423

ACAGACGAAGGAGCCGCAAAGAAGTTATTAAGGGATGAATAATTCCTCCATATAAATATCTCTCACTTATTTAAA
cleaved RNA product abundance [1]: 0.102 | cleaved RNA product abundance [2]: 0.119
